Reduction of the binding of SBP-LeishIF4E-1 (cell lysate) to m7GTP-agarose by 0, 5, 10, 20 ug MBP-Leish4E-IP2 (1-134) per 300 ul, densitometry of anti-SBP blots; 13% and reduction of the binding of SBP-LeishIF4E-3 (cell lysate) to m7GTP-agarose by 0, 5, 10, 20 ug MBP-Leish4E-IP2 (1-134) per 300 ul, densitometry of anti-SBP blots; 60% data for 1 substance are collected here from PMC7192595.

Substance “MBP-Leish4E-IP2_(1-134) (domain or fragment)” returned a reduction of the binding of SBP-LeishIF4E-1 (cell lysate) to m7GTP-agarose by 0, 5, 10, 20 ug MBP-Leish4E-IP2 (1-134) per 300 ul, densitometry of anti-SBP blots; 13% at 5 ug; MBP alone had no effect with LeishIF4E-1-SBP of 42%. The substance further showed a reduction of the binding of SBP-LeishIF4E-3 (cell lysate) to m7GTP-agarose by 0, 5, 10, 20 ug MBP-Leish4E-IP2 (1-134) per 300 ul, densitometry of anti-SBP blots; 60% at 5 ug in the test with LeishIF4E-3-SBP of 96%.
